Consider one substance from article PMC4117760.

Data set [1] deals with MBP-CYV VP3 (Culex Y virus (CYV)). Briefly: EMSA.
Data set [2] concerns the target MBP-DXV VP3 (Drosophila X virus (DXV)) (UniProt Q96724). Nature of the data set: EMSA.
Sequence of UniProt Q96724 (Q96724 whole entry): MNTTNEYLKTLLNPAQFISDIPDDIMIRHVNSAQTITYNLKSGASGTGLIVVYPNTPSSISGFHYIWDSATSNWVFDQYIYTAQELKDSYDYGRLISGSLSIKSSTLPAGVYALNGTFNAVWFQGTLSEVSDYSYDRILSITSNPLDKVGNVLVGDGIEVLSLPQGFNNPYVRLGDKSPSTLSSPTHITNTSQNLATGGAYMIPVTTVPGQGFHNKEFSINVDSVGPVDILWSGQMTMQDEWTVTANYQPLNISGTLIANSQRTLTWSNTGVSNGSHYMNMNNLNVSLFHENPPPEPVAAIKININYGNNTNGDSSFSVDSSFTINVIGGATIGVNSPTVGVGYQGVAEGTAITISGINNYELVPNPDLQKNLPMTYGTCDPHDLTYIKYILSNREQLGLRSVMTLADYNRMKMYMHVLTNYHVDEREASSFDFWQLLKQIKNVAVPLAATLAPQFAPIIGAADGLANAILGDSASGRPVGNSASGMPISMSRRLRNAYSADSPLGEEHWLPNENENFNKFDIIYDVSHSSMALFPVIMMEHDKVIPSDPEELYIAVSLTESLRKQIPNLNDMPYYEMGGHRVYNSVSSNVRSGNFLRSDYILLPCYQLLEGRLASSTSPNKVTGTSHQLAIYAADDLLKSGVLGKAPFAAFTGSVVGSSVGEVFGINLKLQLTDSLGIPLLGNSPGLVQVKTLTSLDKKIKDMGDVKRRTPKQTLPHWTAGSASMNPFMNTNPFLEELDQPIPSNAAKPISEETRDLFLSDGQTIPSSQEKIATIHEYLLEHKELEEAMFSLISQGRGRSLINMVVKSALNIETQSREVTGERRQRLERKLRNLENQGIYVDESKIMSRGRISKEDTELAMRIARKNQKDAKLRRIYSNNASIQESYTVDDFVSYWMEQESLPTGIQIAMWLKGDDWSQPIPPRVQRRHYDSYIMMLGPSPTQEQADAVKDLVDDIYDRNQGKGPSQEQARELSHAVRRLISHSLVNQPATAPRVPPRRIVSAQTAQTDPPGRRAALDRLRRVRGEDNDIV

Take 126-nt FLuc dsRNA: the Kd in data set [1] was 116 nM; in data set [2], 166 nM.
